Laboratory results from patent US6509447B1, “G protein chimeras and methods of screening compounds” (Glaxo Welcome Inc., priority 1997, dated 2003).

How the values were obtained:
[1] = target: T1, purinergic nucleotide P2Y1 receptor (Homo sapiens, UniProt P47900); experiment: CPRG assay, MMY11 cells expressing P2Y1 receptor plus Gα subunit; assay type: cell-based; set-up: key: weak activation insufficient to carry out curve-fitting was detected; NC: no coupling was detected
T1 construct: expressed in transfected cells; host or cells: Saccharomyces cerevisiae strain MMY11, plasmid pDT-PGK-P2Y1
T1 sequence (P47900 whole entry): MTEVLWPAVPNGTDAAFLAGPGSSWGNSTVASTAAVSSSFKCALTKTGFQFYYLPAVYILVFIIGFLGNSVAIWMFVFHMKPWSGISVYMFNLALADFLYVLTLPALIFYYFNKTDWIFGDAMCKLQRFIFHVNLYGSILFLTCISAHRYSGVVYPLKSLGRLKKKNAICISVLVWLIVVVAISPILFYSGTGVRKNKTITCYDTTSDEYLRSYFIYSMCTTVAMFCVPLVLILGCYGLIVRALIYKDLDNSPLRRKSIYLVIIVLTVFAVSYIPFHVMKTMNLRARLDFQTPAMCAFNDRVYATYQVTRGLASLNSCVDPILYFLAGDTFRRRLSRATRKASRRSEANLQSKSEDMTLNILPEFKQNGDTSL
Experimental: (§1) Assay for combined FUS1-lacZ and FUS1-HIS3 Expression. In vivo assays of reporter gene induction (CPRG assays) were carried out by suspending cells to 0.02 OD600 in 200 μl SC-glucose (2%) lacking tryptophan, uracil and histidine. This medium was supplemented with agonists, and additionally 10 mM 3-aminotriazole and the β-galactosidase (lacZ) substrate chlorophenolred-β-D-galactopyranoside (CPRG; Boehringer) to a concentration of 0.1 mg/ml. To visualise the colour change reaction, the medium was buffered to pH 7 with 0.1 M sodium phosphate. The assay was conducted in a 96-well microtitre plate format. Plates were incubated for 24 hours without agitation, and absorbance at 570 nm was determined using a Victor microtitre plate reader (Wallac). EC50 values (+/−standard error) were estimated by curve-fitting, using the Robosage software package.
MMY11 was used in an experiment in which cells were transformed with pairs of plasmids as before, one to express a Gα subunit and the other a receptor expression construct. […] Where pheromone response pathway activation was detected, the agonist concentration required to yield a half-maximal response (EC50+/−standard error; all values in nM except where otherwise indicated) was determined by curve-fitting, and is shown in Table 4A. Where no coupling was detected, this is also indicated (NC).

serotonin 5HT1A receptor = target: T2, serotonin 5HT1A receptor (Homo sapiens, UniProt P08908); experiment: CPRG assay, MMY9 cells expressing 5-HT1A receptor plus Gα subunit; assay type: cell-based; set-up: key to coupling class where no EC50 could be fitted: weak activation insufficient to carry out curve-fitting was detected; NC: no coupling was detected
T2 construct: expressed in transfected cells; host or cells: Saccharomyces cerevisiae strains MMY9 and MMY11, plasmid pDT-PGK-5-HT1A
T2 sequence (P08908 1-422): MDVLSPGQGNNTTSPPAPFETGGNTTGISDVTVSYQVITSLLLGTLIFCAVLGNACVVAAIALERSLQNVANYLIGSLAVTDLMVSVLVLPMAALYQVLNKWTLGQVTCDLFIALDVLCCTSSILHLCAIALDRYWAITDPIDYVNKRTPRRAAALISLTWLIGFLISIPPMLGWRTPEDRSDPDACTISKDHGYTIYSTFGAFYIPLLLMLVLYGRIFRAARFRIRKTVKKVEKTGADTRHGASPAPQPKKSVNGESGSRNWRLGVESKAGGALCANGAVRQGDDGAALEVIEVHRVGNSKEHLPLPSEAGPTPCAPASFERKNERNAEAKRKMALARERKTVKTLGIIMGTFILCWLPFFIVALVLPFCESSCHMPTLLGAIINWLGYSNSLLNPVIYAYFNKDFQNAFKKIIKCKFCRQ
Experimental: as §1
This experiment illustrates that, for certain receptors, the efficiency of coupling to the yeast pheromone response pathway can be enhanced by creating chimeras between yeast and mammalian Gα subunits. […] Agonist-dependent activation of FUS1-lacZ was determined by incubating cells in medium supplemented with the chromogenic, cell-permeant β-galacosidase (lacZ) substrate, chlorophenolred-β-D-galactopyranoside (CPRG; Boehringer Mannheim). […]

B1: Gpa1p: endogenous yeast Gα subunit, product of the GPA1 gene (protein, UniProt P08539 2-472, looked up)
Guanine nucleotide-binding …: GCTVSTQTIGDESDPFLQNKRANDVIEQSLQLEKQRDKNEIKLLLLGAGESGKSTVLKQLKLLHQGGFSHQERLQYAQVIWADAIQSMKILIIQARKLGIQLDCDDPINNKDLFACKRILLKAKALDYINASVAGGSDFLNDYVLKYSERYETRRRVQSTGRAKAAFDEDGNISNVKSDTDRDAETVTQNEDADRNNSSRINLQDICKDLNQEGDDQMFVRKTSREIQGQNRRNLIHEDIAKAIKQLWNNDKGIKQCFARSNEFQLEGSAAYYFDNIEKFASPNYVCTDEDILKGRIKTTGITETEFNIGSSKFKVLDAGGQRSERKKWIHCFEGITAVLFVLAMSEYDQMLFEDERVNRMHESIMLFDTLLNSKWFKDTPFILFLNKIDLFEEKVKSMPIRKYFPDYQGRVGDAEAGLKYFEKIFLSLNKTNKPIYVKRTCATDTQTMKFVLSAVTDLIIQQNLKKIGII
coupling class where no EC50 could be fitted [1]: NC
agonist-dependent induction of FUS1-LacZ / coupling, in words (serotonin 5HT1A receptor): failed to signal
coupling class where no EC50 could be fitted (serotonin 5HT1A receptor): NC
